The assay addresses Aplysia californica acetylcholine binding protein (Aplysia californica). Put plainly: cross-linking.

“Aplysia californica acetylcholine binding protein (natural protein)” gave a stoichiometry N of 5.

The record behind these values is publication PMC11157483.
